B1: 26S proteasome non-ATPase regulatory subunit 4 (Homo sapiens), P55036 (parent)
chain: MVLESTMVCVDNSEYMRNGDFLPTRLQAQQDAVNIVCHSKTRSNPENNVGLITLANDCEVLTTLTPDTGRILSKLHTVQPKGKITFCTGIRVAHLALKHRQGKNHKMRIIAFVGSPVEDNEKDLVKLAKRLKKEKVNVDIINFGEEEVNTEKLTAFVNTLNGKDGTGSHLVTVPPGPSLADALISSPILAGEGGAMLGLGASDFEFGVDPSADPELALALRVSMEEQRQRQEEEARRAAAASAAEAGIATTGTEDSDDALLKMTISQQEFGRTGLPDLSSMTEEEQIAYAMQMSLQGAEFGQAESADIDASSAMDTSEPAKEEDDYDVMQDPEFLQSVLENLPGVDPNNEAIRNAMGSLASQATKDGKKDKKEEDKK
partner: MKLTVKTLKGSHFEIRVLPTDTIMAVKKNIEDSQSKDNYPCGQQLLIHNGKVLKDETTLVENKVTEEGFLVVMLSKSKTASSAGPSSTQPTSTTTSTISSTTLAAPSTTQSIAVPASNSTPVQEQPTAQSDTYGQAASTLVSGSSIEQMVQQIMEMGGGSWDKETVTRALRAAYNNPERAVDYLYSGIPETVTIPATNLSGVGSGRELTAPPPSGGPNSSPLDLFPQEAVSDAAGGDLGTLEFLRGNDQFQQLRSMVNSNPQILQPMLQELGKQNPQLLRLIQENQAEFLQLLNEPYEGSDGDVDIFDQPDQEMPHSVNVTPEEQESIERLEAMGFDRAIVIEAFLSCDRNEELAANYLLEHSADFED
B2: 26S proteasome regulatory subunit RPN10 (Saccharomyces cerevisiae), P38886 (parent)
chain: MVLEATVLVIDNSEYSRNGDFPRTRFEAQIDSVEFIFQAKRNSNPENTVGLISGAGANPRVLSTFTAEFGKILAGLHDTQIEGKLHMATALQIAQLTLKHRQNKVQHQRIVAFVCSPISDSRDELIRLAKTLKKNNVAVDIINFGEIEQNTELLDEFIAAVNNPQEETSHLLTVTPGPRLLYENIASSPIILEEGSSGMGAFGGSGGDSDANGTFMDFGVDPSMDPELAMALRLSMEEEQQRQERLRQQQQQQDQPEQSEQPEQHQDK
partner: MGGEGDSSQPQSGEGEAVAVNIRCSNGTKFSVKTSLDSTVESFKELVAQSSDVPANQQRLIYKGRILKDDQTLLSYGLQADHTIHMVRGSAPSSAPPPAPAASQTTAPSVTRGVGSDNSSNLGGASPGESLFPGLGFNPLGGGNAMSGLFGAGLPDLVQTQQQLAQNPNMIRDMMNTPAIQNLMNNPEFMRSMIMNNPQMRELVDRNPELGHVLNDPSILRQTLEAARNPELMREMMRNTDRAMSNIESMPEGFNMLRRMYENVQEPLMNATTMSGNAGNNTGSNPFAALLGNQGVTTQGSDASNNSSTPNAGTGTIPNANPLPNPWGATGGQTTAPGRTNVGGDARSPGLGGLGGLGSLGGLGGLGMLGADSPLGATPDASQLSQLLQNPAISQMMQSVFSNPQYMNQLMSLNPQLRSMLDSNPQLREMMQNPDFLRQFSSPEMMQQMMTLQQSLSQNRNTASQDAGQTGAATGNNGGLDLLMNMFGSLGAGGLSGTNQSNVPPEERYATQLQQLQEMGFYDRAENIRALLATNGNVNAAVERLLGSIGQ
B3: 26S proteasome regulatory subunit RPN10 (Saccharomyces cerevisiae), P38886 (parent)
chain: B2 chain
B4: DNA damage-inducible protein 1 (Saccharomyces cerevisiae), P40087 (parent)
chain: MDLTISNELTGEIYGPIEVSEDMALTDLIALLQADCGFDKTKHDLYYNMDILDSNRTQSLKELGLKTDDLLLIRGKISNSIQTDAATLSDEAFIEQFRQELLNNQMLRSQLILQIPGLNDLVNDPLLFRERLGPLILQRRYGGYNTAMNPFGIPQDEYTRLMANPDDPDNKKRIAELLDQQAIDEQLRNAIEYTPEMFTQVPMLYINIEINNYPVKAFVDTGAQTTIMSTRLAKKTGLSRMIDKRFIGEARGVGTGKIIGRIHQAQVKIETQYIPCSFTVLDTDIDVLIGLDMLKRHLACVDLKENVLRIAEVETSFLSEAEIPKSFQEGLPAPTSVTTSSDKPLTPTKTSSTLPPQPGAVPALAPRTGMGPTPTGRSTAGATTATGRTFPEQTIKQLMDLGFPRDAVVKALKQTNGNAEFAASLLFQ
B5: 26S proteasome non-ATPase regulatory subunit 4 (Homo sapiens), P55036 (parent)
chain: B1 chain
partner: B2 partner
B6: Proteasomal ubiquitin receptor ADRM1 (Homo sapiens), Q16186 (parent)
chain: MTTSGALFPSLVPGSRGASNKYLVEFRAGKMSLKGTTVTPDKRKGLVYIQQTDDSLIHFCWKDRTSGNVEDDLIIFPDDCEFKRVPQCPSGRVYVLKFKAGSKRLFFWMQEPKTDQDEEHCRKVNEYLNNPPMPGALGASGSSGHELSALGGEGGLQSLLGNMSHSQLMQLIGPAGLGGLGGLGALTGPGLASLLGSSGPPGSSSSSSSRSQSAAVTPSSTTSSTRATPAPSAPAAASATSPSPAPSSGNGASTAASPTQPIQLSDLQSILATMNVPAGPAGGQQVDLASVLTPEIMAPILANADVQERLLPYLPSGESLPQTADEIQNTLTSPQFQQALGMFSAALASGQLGPLMCQFGLPAEAVEAANKGDVEAFAKAMQNNAKPEQKEGDTKDKKDEEEDMSLD
B7: 26S proteasome regulatory subunit RPN10 (Saccharomyces cerevisiae), P38886 (parent)
chain: B2 chain
partner: B1 partner
B8: Ubiquitin domain-containing protein DSK2 (Saccharomyces cerevisiae), P48510 (parent)
chain: MSLNIHIKSGQDKWEVNVAPESTVLQFKEAINKANGIPVANQRLIYSGKILKDDQTVESYHIQDGHSVHLVKSQPKPQTASAAGANNATATGAAAGTGATPNMSSGQSAGFNPLADLTSARYAGYLNMPSADMFGPDGGALNNDSNNQDELLRMMENPIFQSQMNEMLSNPQMLDFMIQSNPQLQAMGPQARQMLQSPMFRQMLTNPDMIRQSMQFARMMDPNAGMGSAGGAASAFPAPGGDAPEEGSNTNTTSSSNTGNNAGTNAGTNAGANTAANPFASLLNPALNPFANAGNAASTGMPAFDPALLASMFQPPVQASQAEDTRPPEERYEHQLRQLNDMGFFDFDRNVAALRRSGGSVQGALDSLLNGDV
partner: B2 chain
B9: Ubiquitin domain-containing protein DSK2 (Saccharomyces cerevisiae), P48510 (parent)
chain: B8 chain
partner: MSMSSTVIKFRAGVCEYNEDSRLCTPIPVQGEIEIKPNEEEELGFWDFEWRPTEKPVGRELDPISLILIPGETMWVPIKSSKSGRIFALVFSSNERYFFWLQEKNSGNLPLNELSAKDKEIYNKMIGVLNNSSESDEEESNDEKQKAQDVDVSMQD

Variants of: B1
Conditions: with rd23a_arath RAD23A

Row | effect of a mutation on the interaction | Variant
1 | with no effect | L216N;A217N;L218N;A219N;L220N

Variants of: B2
Conditions: with dsk2b_arath DSK2B

Row | effect of a mutation on the interaction | Variant
2 | disrupting interaction strength | L228N;A229N;M230N;A231N;L232N

Variants of: B3
Conditions: with dsk2_yeast DSK2, P48510

Row | effect of a mutation on the interaction | Variant
3 | disrupting interaction strength | L228N;A229N;M230N;A231N;L232N

Variants of: B3
Conditions: with ubql2_human UBQLN2, Q9UHD9

Row | effect of a mutation on the interaction | Variant
4 | disrupting interaction strength | L228N;A229N;M230N;A231N;L232N

Variants of: B4
Conditions: with ubc_human UBC

Row | effect of a mutation on the interaction | Variant
5 | disrupting interaction strength | L401A;G402A

Variants of: B4
Conditions: with ubc_human UBC
Remark: another data set of the same source

Row | effect of a mutation on the interaction | Variant
6 | decreasing interaction strength | L401A;G402A

Variants of: B5
Conditions: with dsk2b_arath DSK2B

Row | effect of a mutation on the interaction | Variant
7 | disrupting interaction strength | L216N;A217N;L218N;A219N;L220N;I287N;A288N;Y289N;A290N;M291N
8 | disrupting interaction strength | I287N;A288N;Y289N;A290N;M291N
9 | with no effect | L216N;A217N;L218N;A219N;L220N

Variants of: B6
Conditions: with ubql2_human UBQLN2, Q9UHD9

Row | effect of a mutation on the interaction | Variant
10 | disrupting interaction | F76R

Variants of: B6
Conditions: with dsk2_yeast DSK2, P48510

Row | effect of a mutation on the interaction | Variant
11 | disrupting interaction | F76R

Variants of: B6
Conditions: with ubc_human UBC

Row | effect of a mutation on the interaction | Variant
12 | decreasing interaction | F76R

Variants of: B6
Conditions: with ubql2_human UBQLN2, Q9UHD9
Remark: another data set of the same source

Row | effect of a mutation on the interaction | Variant
13 | disrupting interaction | F98R

Variants of: B6
Conditions: with dsk2_yeast DSK2, P48510
Remark: another data set of the same source

Row | effect of a mutation on the interaction | Variant
14 | disrupting interaction | F98R

Variants of: B6
Conditions: with ubc_human UBC
Remark: another data set of the same source

Row | effect of a mutation on the interaction | Variant
15 | decreasing interaction strength | F98R

Variants of: B6
Conditions: with ubc_human UBC
Remark: another data set of the same source

Row | effect of a mutation on the interaction | Variant
16 | decreasing interaction | F98R

Variants of: B6
Conditions: with ubql1_human UBQLN1, Q9UMX0

Row | effect of a mutation on the interaction | Variant
17 | decreasing interaction | D79N

Variants of: B6
Conditions: with dsk2_yeast DSK2, P48510
Remark: another data set of the same source

Row | effect of a mutation on the interaction | Variant
18 | disrupting interaction | D79N

Variants of: B6
Conditions: with ubc_human UBC
Remark: another data set of the same source

Row | effect of a mutation on the interaction | Variant
19 | decreasing interaction | D79N

Variants of: B6
Conditions: with ubql2_human UBQLN2, Q9UHD9
Remark: another data set of the same source

Row | effect of a mutation on the interaction | Variant
20 | disrupting interaction | L56A

Variants of: B6
Conditions: with dsk2_yeast DSK2, P48510
Remark: another data set of the same source

Row | effect of a mutation on the interaction | Variant
21 | disrupting interaction | L56A

Variants of: B6
Conditions: with ubc_human UBC
Remark: another data set of the same source

Row | effect of a mutation on the interaction | Variant
22 | decreasing interaction | L56A

Variants of: B7
Conditions: with rd23a_arath RAD23A

Row | effect of a mutation on the interaction | Variant
23 | disrupting interaction strength | L228N;A229N;M230N;A231N;L232N

Variants of: B8
Conditions: with rpn10_yeast RPN10, P38886

Row | effect of a mutation on the interaction | Variant
24 | with no effect | V71A
25 | disrupting interaction strength | L70A;V71A

Variants of: B8
Conditions: with rpn10_yeast RPN10, P38886
Remark: another data set of the same source

Row | effect of a mutation on the interaction | Variant
26 | disrupting interaction | V71A

Variants of: B9
Conditions: with rpn13_yeast RPN13, O13563

Row | effect of a mutation on the interaction | Variant
27 | decreasing interaction strength | L70A;V71A
28 | decreasing interaction strength | V71A
29 | disrupting interaction strength | L44A;I45A
30 | decreasing interaction strength | L70A
31 | disrupting interaction strength | L44A
32 | disrupting interaction strength | I45A

Variants of: B9
Conditions: with rpn13_yeast RPN13, O13563
Remark: another data set of the same source

Row | effect of a mutation on the interaction | Variant
33 | decreasing interaction | V71A

Variants of: B9
Conditions: with rpn13_yeast RPN13, O13563
Remark: another data set of the same source

Row | effect of a mutation on the interaction | Variant
34 | decreasing interaction | L70A

Variants of: B9
Conditions: with rpn13_yeast RPN13, O13563
Remark: another data set of the same source

Row | effect of a mutation on the interaction | Variant
35 | disrupting interaction | L44A

Variants of: B9
Conditions: with rpn13_yeast RPN13, O13563
Remark: another data set of the same source

Row | effect of a mutation on the interaction | Variant
36 | disrupting interaction | I45A

From IntAct's records for PubMed 20059542
